Measurements as given in the nanobody polyreactivity screen of Harvey et al. (2022).

experiment: yeast display, Sf9 membrane polyspecificity reagent, FACS + sequencing; frameworks hold sequencing errors
Method in brief: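 Nanobodies from a synthetic yeast display library (Saccharomyces cerevisiae BJ5465), induced 36–48 hours with galactose, were stained 1 hour at 4 °C with 10% biotinylated, detergent-solubilized Sf9 membrane reagent, enriched on streptavidin microbeads, then FACS-sorted. Anti-HA (expression) and streptavidin (reagent binding) fluorescence set low and high (top ~1%) gates. Polyreactivity labels come from the gate of origin. Genes were colony-PCR amplified, MiSeq 2 × 250 sequenced and filtered by CDR length.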

Row | Sequence | polyreactivity (PSR sort gate)
1 | QVQLVESGGGLVQAGGSLRLSCAASGRTFEHYGMGWYRQAPGKEREFVADISRIGGSTYADSVKGRFTISRDNAKNTVYLQKNSLKPEDSAVYYCNKARYQLGSGYNYWGQGTQVTVSS | low polyreactivity
2 | QVQLVESGGGLVQAGGSLRLSCAASGRTFEIYAMGWYRHAPGKERELVAAISSSGGSTYYADSVKGRFTISRDNAKNTVYLQMNSLKPEDTAVYYCAARYRATLTRTRVGYWGQGTQLTVSS | high polyreactivity
3 | QVQLVESGGGLVQAGGSLRLSCAASGRTFEKNAMGWYRQAPGKERELVASITSVGSTDYADSVKGRFTISRDNAKNTVYLQMNSLKPEDTAVYYCAKTLGSQNYDFDYWGQGTQVTVSS | low polyreactivity
4 | QVQLVESGGGLVQAGGSLRLSCAASGRTFEVYAMGLYRQAPGKERELVATITYSGGITYYADSVKGRFTISRDNAKNTVYLQMNSLKPEDTAVYYPIGVRGDYDYWGQGTQVTVSS | low polyreactivity
5 | QVQLVESGGGLVQAGGSLRLSCAASGRTFEWNAMGWYRQAPGKERELVAAITKRGGITYYADSVKGRFTISRDNAKNTVYLQMNSLKPEDTAVYYCAKRIVFYGRYDYWGQGTQVTVSS | high polyreactivity
6 | QVQLVESGGGLVQAGGSLRLSCAASGRTFEYYAMGWYRQAPGKEREFVAAISRSGGSTYYADSVKGRFTISRDNAKNTVYLQMNSLKPEDTAVYYCAASAIRRSQRFYHWGQGTQVTVSS | high polyreactivity
7 | QVQLVESGGGLVQAGGSLRLSCAASGRTFFANAMGWYRQAPGKERELVAAISGSGDRTYYADSVKGRFTISRDNAKNTVYLQMNSLKPEDTAVYYCAAAGWSARGYNYWGQGTQVTVSS | high polyreactivity
8 | QVQLVESGGGLVQAGGSLRLSCAASGRTFFDYAMGWYRQAPGKEWELVAAITASGSSTYYADSVKGRFTISRDNAKNTVYLQMNSLKPDDTAVYYCAAGASANKKITSYDYWGQGTQVTVSS | low polyreactivity
9 | QVQLVESGGGLVQAGGSLRLSCAASGRTFFDYTMGWYRQAPGKERELVAAITGGDGSTYYADSVKGRFTISRDNAKTTVYLQMNSLKPEDTAVYDCAAEYTRTYWYAAMDYWGQGTQVTVSS | low polyreactivity
10 | QVQLVESGGGLVQAGGSLRLSCAASGRTFFGYAMGWYRQAPGKEREFVAAISGSGGSTYYADSVKGRFTISRDNAKNTVYLQMNSLKPEDTAVYYCNGDYWGEYYYWGQGTQVSVSS | low polyreactivity
11 | QVQLVESGGGLVQAGGSLRLSCAASGRTFFGYAMGWYRQAPGKERELVATISGSGASTYYADSVKGRFTISRDNAKNTVYLQMNSLKPEDTAVYYCAVRLYFYQRNYYSWGQGTQVTVSS | high polyreactivity
12 | QVQLVESGGGLVQAGGSLRLSCAASGRTFFGYAMGWYRQAPGTERELVAAINWGGASTYYADSVKGRFTISRDNAKNTVYLQMNSLKPEATAVYYCAADSVPSRPTYGRYDYWGQGTQVTVSS | low polyreactivity
13 | QVQLVESGGGLVQAGGSLRLSCAASGRTFFHYAMGWYRQAPRKERELVAAISSGGGTYADSVKGRFTISRDNAKNTVYLQMNSLKPEDTAVYYCNADTDSAKSPAYYYWGQGTQVTVSS | low polyreactivity
14 | QVQLVESGGGLVQAGGSLRLSCAASGRTFFIYAMGWYRQAPGKERELVAAIRWRGGSTYYADSVKGRFTISRDNAKNTVYLQMNSLKPEDTAVYYCAASNRQARYEDYYWGQGTQVTVSS | high polyreactivity
15 | QVQLVESGGGLVQAGGSLRLSCAASGRTFFKYAMGWYRQAPGKERELVAAITGRGGSTYADSVKGRFTISRDNAKNTVYLQMNCLKPEDTAVYYCAKVFQRGAQYYYYKYDYWGQGTQVTVSS | high polyreactivity
16 | QVQLVESGGGLVQAGGSLRLSCAASGRTFFPNAMGWYRQAPGKERELVAAISSGGSTYYADSVKGRFTISRDNAKNTVYLQMNSLKPEDTAVYYCAVYGFYSKYGYWGQGTQVTVSS | high polyreactivity
17 | QVQLVESGGGLVQAGGSLRLSCAASGRTFFRNAMGWYRQAPAKERELVAGISRSGGSTYYADSVKGRFTISRDNAQNTFSLEMNSLKPEDSAVYYFAAALYPYPGYEYWGQGTQVTVSS | high polyreactivity
18 | QVQLVESGGGLVQAGGSLRLSCAASGRTFFRNAMGWYRQAPGKERELVAGISRSGGSTYYADSVKGRFTISRDNAKNTVYLQMNSLKPEDTAVYYCAASFRFYRTGYYYWGQGTQVTVSS | high polyreactivity
19 | QVQLVESGGGLVQAGGSLRLSCAASGRTFFRNAMGWYRQAPGKERELVAGMSSSGGRTYADSVKGRYTISRDNAKNTVYLQMNSLKPEDTAVYYCAVQSGWVSGLRYYYWGQGTQVTVSS | high polyreactivity
20 | QVQLVESGGGLVQAGGSLRLSCAASGRTFFRYVMGWYRQAPGKERELVAAISRSGGSTYYADSVKGRFTISRDNAKNTVYLQMNSLKPEDTAVYYCNTVARSTVVPTEFDYWGQGTQVTVSS | high polyreactivity
21 | QVQLVESGGGLVQAGGSLRLSCAASGRTFFSFNAMVWYRQPPGKERELVAAIDGDGGITYYADSVKGRFTISRDNAKNTVYLQMNSLKPEDTAVYYCAAETLYSSAGEDDYWGQGTQVTVSS | low polyreactivity
22 | QVQLVESGGGLVQAGGSLRLSCAASGRTFFSYTMGWYRPAPGKERELFAAIYDSDGRTYYADSVKVRFTISRDNAKNTVYLQMYSLKPEDTAVYYCAAVPDKYWSRVRRYLFEHNYWGQGTKVTVSS | low polyreactivity

Row | Sequence | polyreactivity (PSR sort gate)
23 | QVQLVESGGGLVQAGGSLRLSCAASGRTFFTYAMGWYRQAPGKERELVAAITYRGGGTYYADSVKGRFTISRDNAKNTVYLQMNSLKPEDTAVYYCAAEYWVGVYLYDYWGQGTQVTVSS | high polyreactivity
24 | QVQLVESGGGLVQAGGSLRLSCAASGRTFFVNAMGWYRPAPGKERELVAAITWSGGSTYYADSVKGRFTISRDNAKNTVYLQMNSLKAEDTAVYYCNADYQWYLGGYDYWGQGTQVTVSS | high polyreactivity
25 | QVQLVESGGGLVQAGGSLRLSCAASGRTFFVNAMGWYRQAPGKERELVAAITWSGGSTYYADSVKGRFTISRDNAKNTVYLQMNSLKPEDTAVYYCAAEYYSYSYSYYYYGYEYWGQGTQVTVSS | high polyreactivity
26 | QVQLVESGGGLVQAGGSLRLSCAASGRTFFVYAMGWYRPAPGKERELVASITLSGGSTYYADSVKGRFTISRDKAKNTVYLQINSLKREDTAGYYCAKGWSRDNDLEREDEYWGHGTQVTVSS | low polyreactivity
27 | QVQLVESGGGLVQAGGSLRLSCAASGRTFFVYAMGWYRQAPGKERELVAAISRGGRTYYADSVKGRFTISRDNAKNTVYLQMNSLKPEDTAVYYCAAESWYQQGDYWGQGTQVTVSS | low polyreactivity
28 | QVQLVESGGGLVQAGGSLRLSCAASGRTFFYYAMGWYRQAPGKERELVAAITTDGGTTSYADSVKGRFTISRDNAKNTVSLQMNSLKPEETAVYYCAADASYQYYPYDYWGQGTQVTVSS | low polyreactivity
29 | QVQLVESGGGLVQAGGSLRLSCAASGRTFFYYAMGWYRQAPGKERELVAGITKRGGSTYYADSVKGRFTISRDNAKNSVYLQMNSLKPEDSAVYYCAKSFTQSSTDGYWGQGTQVNVSS | high polyreactivity
30 | QVQLVESGGGLVQAGGSLRLSCAASGRTFFYYAMGWYRQSPGKERELVATITGIGGSTYADSVKGRFTISRDNAKNTVYLQMNSLKPEDTAVYYCNAERGVYWGRYPYKYDYWGQGTQVTVSS | low polyreactivity
31 | QVQLVESGGGLVQAGGSLRLSCAASGRTFFYYTMGWYRQAPGKERELVAAITYSGTSTYYADSVKGRFTISRDNAKNTVYLQMNSLKPEDTAVYYCAADWYVTHQGYTSGIWYVEYDYWGQGTQVTVSS | low polyreactivity
32 | QVQLVESGGGLVQAGGSLRLSCAASGRTFGANAMGWYRQAPGKERELVAASTQDGGSTYYADSVKGRFTISRDNAKNTVYLQMNSLKPEDTAVYYCAADLVVFVQFDVAVDYYYWGQGTQVTVSS | low polyreactivity
33 | QVQLVESGGGLVQAGGSLRLSCAASGRTFGENAMGWYRQAPGKERELVAAITGGDSTNYADSVKGRFTISRDNAKNTVYLQMNSLKPEDTAVYYCAAYGVKVLWTLTTYDYWGQGTQVTVSS | low polyreactivity
34 | QVQLVESGGGLVQAGGSLRLSCAASGRTFGFNVMGWYRQAPGKERELVAAISWSGGSTYYADSVKGRFTISRENAKNTVYLQMNSLKPEDTAVYSCNKRYVHRYGYWGQGTQVTVTS | low polyreactivity
35 | QVQLVESGGGLVQAGGSLRLSCAASGRTFGFYAMGWYRQAPGKERELVATISSSGGSTYYADSVKGRFTISRDNAKNTVYLQMNSLKPEDTAVYYCAKVVSGWRSHYIGDYWGQGTQVTVSS | low polyreactivity
36 | QVQLVESGGGLVQAGGSLRLSCAASGRTFGFYGMGWYRQAPGKEREFVAAITRRGGSTYYADSVKGRFTISRDNAKNTVYLQMNSLNPEDTAVYYCNAARGAYYRWWGFGSDYWGQGTQVTVSS | high polyreactivity
37 | QVQLVESGGGLVQAGGSLRLSCAASGRTFGFYTMGWYRPAPGKERELVAAITSRGGITTYADSVKGRFTISRDNAKNTVYLQLNSLIPEDTAVYYCAASLRAPSLGHYYYWGQGTQVTVSS | high polyreactivity
38 | QVQLVESGGGLVQAGGSLRLSCAASGRTFGGNAMGWYRQAPGKERELVASITKRSGSTYYADSVKGRFTISRDNAKNTVYLQMNSLKPEDTAVYYCNTKPSYYFFANTYYGYNDDYWGQGTQVTVSS | high polyreactivity
39 | QVQLVESGGGLVQAGGSLRLSCAASGRTFGGNAMGWYRQAPGKERELVAVIRSTGGSTYYADSVKGRFTISRDNAKNTVYLQMNSLKPEDTAVYYCAKGRGRNFGYWGQGTQVTVSS | high polyreactivity
40 | QVQLVESGGGLVQAGGSLRLSCAASGRTFGGNSMGWYRQAPGKERELVAAISGSGGSTYYADSVKGRFTISRDNAKNTVYLQMNSLKPEDTAVYYCAKASRKGWRYDSWGQGTQVTVSS | high polyreactivity
41 | QVQLVESGGGLVQAGGSLRLSCAASGRTFGGNTMGWSRQAPGKERELVAAISSGGSTYYADSVKGRFTISRDNAKNTVYLQMNSLKPEDTAVYYCAKSDPVGYYWDDPVTFDYWGQGTQVTVSS | low polyreactivity
42 | QVQLVESGGGLVQAGGSLRLSCAASGRTFGGYAMGWYRQAPGKERELVAAISKRSGSTYYADSVKGRFTISRDNAKNTVYLQMNSLKPEDTAVYYCNKVWFQRSVQPVEYDYWGQGTQVTVSS | high polyreactivity
43 | QVQLVESGGGLVQAGGSLRLSCAASGRTFGGYAMGWYRQAPGKERELVAAISKSGGSTYYAVSVKGRFTISRDTAKNTVYLQMNSLKPEDTAVYYCAAQGSSYSTRVWRRYYYWGQGTQVTVSS | high polyreactivity
